# Test results: patent US20050118674A1, “Engineering of Controlled Deamidation Rates in Peptides, Proteins, and Similar Structures” (priority 2003, published 2005)
# Where no end group is shown, it is not given here.
# Assay: First-order nonenzymatic deamidation of pentapeptides in Tris buffer
# Assay type: physicochemical
# Conditions: 0.15 M Tris HCl; for First-Order Deamidation Halftimes of GlyXxxGlnYyyGly: pH 7.4, 37.0 ° C., Gln pentapeptides, 52 values measured, rest derived from surface fitting; for First-Order Deamidation Halftimes of GlyXxxAsnYyyGly: pH 7.4, 37.0° C., Asn pentapeptides
# Summary of the method: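 First-order deamidation rates determined for XxxAsnYyy and XxxGlnYyy pentapeptides in 0.15 M Tris buffer, pH 7.4, 37° C. Not all values were measured directly: several Asn rates were estimated and most Gln rates came from surface fitting.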
Substance,First-Order Deamidation Halftimes of GlyXxxGlnYyyGly [days],First-Order Deamidation Halftimes of GlyXxxAsnYyyGly [days]
GlyTrpGlnIleGly (GWQIG; printed: GlyTrpGlnIleGly),8000,
GlySerAsnIleGly (GSNIG; printed: GlySerAsnIleGly),,285
GlyProGlnLeuGly (GPQLG; printed: GlyProGlnLeuGly),5800,
GlyPheAsnAlaGly (GFNAG; printed: GlyPheAsnAlaGly),,24.2
GlyThrAsnAspGly (GTNDG; printed: GlyThrAsnAspGly),,27.9
GlyTrpAsnCysGly (GWNCG; printed: GlyTrpAsnCysGly),,83.1
GlyMetGlnMetGly (GMQMG; printed: GlyMetGlnMetGly),3500,
GlyThrGlnTrpGly (GTQWG; printed: GlyThrGlnTrpGly),9700,
GlyMetAsnAspGly (GMNDG; printed: GlyMetAsnAspGly),,26.4
GlyGlyGlnCysGly (GGQCG; printed: GlyGlyGlnCysGly),1900,
GlyGluAsnLeuGly (GENLG; printed: GlyGluAsnLeuGly),,130
GlyValGlnCysGly (GVQCG; printed: GlyValGlnCysGly),1300,
GlyLysGlnThrGly (GKQTG; printed: GlyLysGlnThrGly),4100,
GlyMetAsnGluGly (GMNEG; printed: GlyMetAsnGluGly),,72.4
GlyAspAsnProGly (GDNPG; printed: GlyAspAsnProGly),,11800
GlyValAsnGlyGly (GVNGG; printed: GlyValAsnGlyGly),,1.23
GlyAmCysAsnProGly (CNPG; not fully specified (N-terminus); printed as GlyAmCysAsnProGly),,3900
GlyAlaAsnGlyGly (GANGG; printed: GlyAlaAsnGlyGly),,1.05
GlyMetAsnPheGly (GMNFG; printed: GlyMetAsnPheGly),,61.9
GlyAlaGlnThrGly (GAQTG; printed: GlyAlaGlnThrGly),5100,
GlyIleGlnAlaGly (GIQAG; printed: GlyIleGlnAlaGly),6200,
GlyHisAsnThrGly (GHNTG; printed: GlyHisAsnThrGly),,47.2
GlyLeuGlnTrpGly (GLQWG; printed: GlyLeuGlnTrpGly),16000,
GlyHisAsnLeuGly (GHNLG; printed: GlyHisAsnLeuGly),,116
GlyLysAsnProGly (GKNPG; printed: GlyLysAsnProGly),,4940
GlyAspGlnArgGly (GDQRG; printed: GlyAspGlnArgGly),5200,

Substance,First-Order Deamidation Halftimes of GlyXxxGlnYyyGly [days],First-Order Deamidation Halftimes of GlyXxxAsnYyyGly [days]
GlyAspAsnGlyGly (GDNGG; printed: GlyAspAsnGlyGly),,1.53
GlyAlaAsnHisGly (GANHG; printed: GlyAlaAsnHisGly),,9.3
GlyLysAsnLysGly (GKNKG; printed: GlyLysAsnLysGly),,53.5
GlyLysGlnTrpGly (GKQWG; printed: GlyLysGlnTrpGly),10000,
GlyGlyAsnMetGly (GGNMG; printed: GlyGlyAsnMetGly),,50.4
GlyArgGlnArgGly (GRQRG; printed: GlyArgGlnArgGly),2300,
GlyValAsnMetGly (GVNMG; printed: GlyValAsnMetGly),,65.7
GlyGluGlnIleGly (GEQIG; printed: GlyGluGlnIleGly),4200,
GlyThrAsnLeuGly (GTNLG; printed: GlyThrAsnLeuGly),,110
GlyProAsnTrpGly (GPNWG; printed: GlyProAsnTrpGly),,122
GlyArgGlnGlyGly (GRQGG; printed: GlyArgGlnGlyGly),660,
GlyGlyAsnHisGly (GGNHG; printed: GlyGlyAsnHisGly),,9.2
GlyAmCysAsnAlaGly (CNAG; not fully specified (N-terminus); printed as GlyAmCysAsnAlaGly),,21.5
GlyMetAsnValGly (GMNVG; printed: GlyMetAsnValGly),,211
GlyAmCysAsnLeuGly (CNLG; not fully specified (N-terminus); printed as GlyAmCysAsnLeuGly),,100
GlyIleAsnCysGly (GINCG; printed: GlyIleAsnCysGly),,52.7
GlyAmCysAsnTrpGly (CNWG; not fully specified (N-terminus); printed as GlyAmCysAsnTrpGly),,81.3
GlyArgGlnGluGly (GRQEG; printed: GlyArgGlnGluGly),5400,
GlySerAsnPheGly (GSNFG; printed: GlySerAsnPheGly),,52.2
GlySerGlnMetGly (GSQMG; printed: GlySerGlnMetGly),5100,
GlyTrpGlnTrpGly (GWQWG; printed: GlyTrpGlnTrpGly),19000,
GlyTyrGlnThrGly (GYQTG; printed: GlyTyrGlnThrGly),5600,
GlySerGlnGlyGly (GSQGG; printed: GlySerGlnGlyGly),700,
GlyAspGlnCysGly (GDQCG; printed: GlyAspGlnCysGly),2100,
GlyTrpGlnHisGly (GWQHG; printed: GlyTrpGlnHisGly),7500,
GlyHisAsnArgGly (GHNRG; printed: GlyHisAsnArgGly),,48.9

Substance,First-Order Deamidation Halftimes of GlyXxxGlnYyyGly [days],First-Order Deamidation Halftimes of GlyXxxAsnYyyGly [days]
GlyProAsnArgGly (GPNRG; printed: GlyProAsnArgGly),,72.9
GlyLysGlnArgGly (GKQRG; printed: GlyLysGlnArgGly),2300,
GlyLeuAsnAmCysGly,,33.6
GlyAlaGlnSerGly (GAQSG; printed: GlyAlaGlnSerGly),5200,
GlyProGlnSerGly (GPQSG; printed: GlyProGlnSerGly),4600,
GlyIleGlnGlyGly (GIQGG; printed: GlyIleGlnGlyGly),620,
GlyIleAsnIleGly (GINIG; printed: GlyIleAsnIleGly),,384
GlyAspAsnHisGly (GDNHG; printed: GlyAspAsnHisGly),,9.7
GlyTrpAsnLysGly (GWNKG; printed: GlyTrpAsnLysGly),,59.4
GlyTrpAsnValGly (GWNVG; printed: GlyTrpAsnValGly),,226
GlyArgGlnLysGly (GRQKG; printed: GlyArgGlnLysGly),4000,
GlyGluAsnLysGly (GENKG; printed: GlyGluAsnLysGly),,77.8
GlySerGlnAspGly (GSQDG; printed: GlySerGlnAspGly),8200,
GlyHisAsnTyrGly (GHNYG; printed: GlyHisAsnTyrGly),,82.3
GlyMetGlnAspGly (GMQDG; printed: GlyMetGlnAspGly),6200,
GlyGluGlnCysGly (GEQCG; printed: GlyGluGlnCysGly),2100,
GlyMetGlnArgGly (GMQRG; printed: GlyMetGlnArgGly),5100,
GlyTyrAsnGlyGly (GYNGG; printed: GlyTyrAsnGlyGly),,1.49
GlyThrGlnAlaGly (GTQAG; printed: GlyThrGlnAlaGly),4300,
GlyMetGlnGluGly (GMQEG; printed: GlyMetGlnGluGly),5800,
GlyAlaAsnTrpGly (GANWG; printed: GlyAlaAsnTrpGly),,130
GlyIleAsnGluGly (GINEG; printed: GlyIleAsnGluGly),,58.6
GlyMetAsnThrGly (GMNTG; printed: GlyMetAsnThrGly),,43.6
GlyLeuAsnSerGly (GLNSG; printed: GlyLeuAsnSerGly),,16.7
GlySerGlnPheGly (GSQFG; printed: GlySerGlnPheGly),8300,
GlyAlaGlnLeuGly (GAQLG; printed: GlyAlaGlnLeuGly),6100,
